{
  "source": "paper PMC12865133",
  "about": "“Macrocyclic Molecular Glues for the 14‐3‐3/ChREBP Interaction: Affinity and Cooperativity in an Inverse Relationship” (Angewandte Chemie (International Ed. in English), 2025)",
  "origin": "cited, not measured here",
  "molecular_target": "ChREBP (Homo sapiens) (UniProt Q9NP71)",
  "sequence (Q9NP71 whole entry)": "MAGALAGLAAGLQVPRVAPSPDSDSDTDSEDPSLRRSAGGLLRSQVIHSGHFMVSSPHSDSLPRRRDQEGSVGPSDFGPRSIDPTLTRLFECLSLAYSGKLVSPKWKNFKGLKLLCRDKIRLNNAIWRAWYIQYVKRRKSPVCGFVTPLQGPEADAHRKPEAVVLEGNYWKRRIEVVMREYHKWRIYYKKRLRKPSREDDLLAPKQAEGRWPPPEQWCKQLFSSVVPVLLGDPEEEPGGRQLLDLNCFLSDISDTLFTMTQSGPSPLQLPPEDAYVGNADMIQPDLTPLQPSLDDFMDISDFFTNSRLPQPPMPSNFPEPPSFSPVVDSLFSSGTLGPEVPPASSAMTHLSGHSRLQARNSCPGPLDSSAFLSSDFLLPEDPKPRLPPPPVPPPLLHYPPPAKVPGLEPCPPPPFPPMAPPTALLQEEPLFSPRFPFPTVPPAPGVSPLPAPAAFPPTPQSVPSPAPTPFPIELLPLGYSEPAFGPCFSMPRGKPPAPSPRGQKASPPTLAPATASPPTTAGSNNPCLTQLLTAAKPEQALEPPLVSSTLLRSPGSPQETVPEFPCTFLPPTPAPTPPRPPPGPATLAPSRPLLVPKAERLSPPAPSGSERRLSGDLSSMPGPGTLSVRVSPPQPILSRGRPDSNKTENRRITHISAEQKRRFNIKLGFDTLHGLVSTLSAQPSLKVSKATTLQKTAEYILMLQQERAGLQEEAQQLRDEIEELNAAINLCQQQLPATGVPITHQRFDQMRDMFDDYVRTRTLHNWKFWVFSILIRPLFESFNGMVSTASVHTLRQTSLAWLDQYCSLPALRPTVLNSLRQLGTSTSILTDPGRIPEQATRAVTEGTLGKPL",
  "settings": "cited from earlier work",
  "data": [
    {"substance": "14-3-3 (from UniProt P31946)", "values": [
      {"measurement": "Kd", "result": 1500, "unit": "nM"}
    ]}
  ]
}
